These results are taken from patent US20220119490A1 (Genentech, published 2022).

The target of assay [1] is T1, PTPRD S431L variant extracellular domain (human, UniProt P23468 21-1265).
T1 construct: extracellular domain; also called FN2 mutant
T1 sequence (looked up): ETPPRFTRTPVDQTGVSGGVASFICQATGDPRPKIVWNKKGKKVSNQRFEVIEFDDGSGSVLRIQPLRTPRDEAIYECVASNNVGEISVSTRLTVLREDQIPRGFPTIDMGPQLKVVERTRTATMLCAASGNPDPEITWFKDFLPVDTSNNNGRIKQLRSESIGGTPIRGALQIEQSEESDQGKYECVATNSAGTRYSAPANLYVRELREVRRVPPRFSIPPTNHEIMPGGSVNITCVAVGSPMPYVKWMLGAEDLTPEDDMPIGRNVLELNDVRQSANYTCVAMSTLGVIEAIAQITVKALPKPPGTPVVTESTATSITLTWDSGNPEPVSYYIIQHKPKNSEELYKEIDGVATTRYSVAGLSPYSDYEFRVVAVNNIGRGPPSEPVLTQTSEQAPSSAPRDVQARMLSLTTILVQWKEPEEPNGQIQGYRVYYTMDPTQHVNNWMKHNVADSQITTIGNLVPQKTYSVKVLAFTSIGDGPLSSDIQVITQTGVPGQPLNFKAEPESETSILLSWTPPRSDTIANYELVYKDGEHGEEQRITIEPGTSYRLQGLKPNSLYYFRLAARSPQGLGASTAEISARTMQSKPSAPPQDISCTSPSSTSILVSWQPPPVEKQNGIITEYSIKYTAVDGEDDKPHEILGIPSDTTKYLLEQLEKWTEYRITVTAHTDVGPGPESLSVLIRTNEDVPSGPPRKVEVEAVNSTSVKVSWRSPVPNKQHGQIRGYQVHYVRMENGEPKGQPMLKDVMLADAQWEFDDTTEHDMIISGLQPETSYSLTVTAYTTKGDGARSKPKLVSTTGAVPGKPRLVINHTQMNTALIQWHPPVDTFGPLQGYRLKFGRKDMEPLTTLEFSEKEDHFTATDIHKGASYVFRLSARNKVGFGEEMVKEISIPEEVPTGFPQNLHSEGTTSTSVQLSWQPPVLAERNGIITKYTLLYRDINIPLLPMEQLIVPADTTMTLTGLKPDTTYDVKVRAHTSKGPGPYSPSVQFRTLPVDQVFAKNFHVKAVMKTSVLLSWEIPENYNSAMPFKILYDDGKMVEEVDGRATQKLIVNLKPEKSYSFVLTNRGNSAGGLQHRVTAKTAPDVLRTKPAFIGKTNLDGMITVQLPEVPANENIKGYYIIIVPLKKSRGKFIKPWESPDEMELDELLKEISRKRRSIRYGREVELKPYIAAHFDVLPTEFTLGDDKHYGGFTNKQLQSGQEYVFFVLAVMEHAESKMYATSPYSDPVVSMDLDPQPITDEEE
The assay is described as follows: extracellular interaction screen: pentameric PTPRD variant ECD on ECD-Fc prey (FIG. 5L).

Assay [2] deals with T2, PTPRZ1 expressed on cells (human, UniProt P23471 25-2315).
T2 construct: whole, on cells
In words: cell surface interaction assay: streptavidin-tetramerized biotinylated ECD on transfected cells, immunofluorescence. From the text:
FIG. 3H is a schematic showing the design of the cell surface interaction assay.

T2 sequence (P23471 25-2315): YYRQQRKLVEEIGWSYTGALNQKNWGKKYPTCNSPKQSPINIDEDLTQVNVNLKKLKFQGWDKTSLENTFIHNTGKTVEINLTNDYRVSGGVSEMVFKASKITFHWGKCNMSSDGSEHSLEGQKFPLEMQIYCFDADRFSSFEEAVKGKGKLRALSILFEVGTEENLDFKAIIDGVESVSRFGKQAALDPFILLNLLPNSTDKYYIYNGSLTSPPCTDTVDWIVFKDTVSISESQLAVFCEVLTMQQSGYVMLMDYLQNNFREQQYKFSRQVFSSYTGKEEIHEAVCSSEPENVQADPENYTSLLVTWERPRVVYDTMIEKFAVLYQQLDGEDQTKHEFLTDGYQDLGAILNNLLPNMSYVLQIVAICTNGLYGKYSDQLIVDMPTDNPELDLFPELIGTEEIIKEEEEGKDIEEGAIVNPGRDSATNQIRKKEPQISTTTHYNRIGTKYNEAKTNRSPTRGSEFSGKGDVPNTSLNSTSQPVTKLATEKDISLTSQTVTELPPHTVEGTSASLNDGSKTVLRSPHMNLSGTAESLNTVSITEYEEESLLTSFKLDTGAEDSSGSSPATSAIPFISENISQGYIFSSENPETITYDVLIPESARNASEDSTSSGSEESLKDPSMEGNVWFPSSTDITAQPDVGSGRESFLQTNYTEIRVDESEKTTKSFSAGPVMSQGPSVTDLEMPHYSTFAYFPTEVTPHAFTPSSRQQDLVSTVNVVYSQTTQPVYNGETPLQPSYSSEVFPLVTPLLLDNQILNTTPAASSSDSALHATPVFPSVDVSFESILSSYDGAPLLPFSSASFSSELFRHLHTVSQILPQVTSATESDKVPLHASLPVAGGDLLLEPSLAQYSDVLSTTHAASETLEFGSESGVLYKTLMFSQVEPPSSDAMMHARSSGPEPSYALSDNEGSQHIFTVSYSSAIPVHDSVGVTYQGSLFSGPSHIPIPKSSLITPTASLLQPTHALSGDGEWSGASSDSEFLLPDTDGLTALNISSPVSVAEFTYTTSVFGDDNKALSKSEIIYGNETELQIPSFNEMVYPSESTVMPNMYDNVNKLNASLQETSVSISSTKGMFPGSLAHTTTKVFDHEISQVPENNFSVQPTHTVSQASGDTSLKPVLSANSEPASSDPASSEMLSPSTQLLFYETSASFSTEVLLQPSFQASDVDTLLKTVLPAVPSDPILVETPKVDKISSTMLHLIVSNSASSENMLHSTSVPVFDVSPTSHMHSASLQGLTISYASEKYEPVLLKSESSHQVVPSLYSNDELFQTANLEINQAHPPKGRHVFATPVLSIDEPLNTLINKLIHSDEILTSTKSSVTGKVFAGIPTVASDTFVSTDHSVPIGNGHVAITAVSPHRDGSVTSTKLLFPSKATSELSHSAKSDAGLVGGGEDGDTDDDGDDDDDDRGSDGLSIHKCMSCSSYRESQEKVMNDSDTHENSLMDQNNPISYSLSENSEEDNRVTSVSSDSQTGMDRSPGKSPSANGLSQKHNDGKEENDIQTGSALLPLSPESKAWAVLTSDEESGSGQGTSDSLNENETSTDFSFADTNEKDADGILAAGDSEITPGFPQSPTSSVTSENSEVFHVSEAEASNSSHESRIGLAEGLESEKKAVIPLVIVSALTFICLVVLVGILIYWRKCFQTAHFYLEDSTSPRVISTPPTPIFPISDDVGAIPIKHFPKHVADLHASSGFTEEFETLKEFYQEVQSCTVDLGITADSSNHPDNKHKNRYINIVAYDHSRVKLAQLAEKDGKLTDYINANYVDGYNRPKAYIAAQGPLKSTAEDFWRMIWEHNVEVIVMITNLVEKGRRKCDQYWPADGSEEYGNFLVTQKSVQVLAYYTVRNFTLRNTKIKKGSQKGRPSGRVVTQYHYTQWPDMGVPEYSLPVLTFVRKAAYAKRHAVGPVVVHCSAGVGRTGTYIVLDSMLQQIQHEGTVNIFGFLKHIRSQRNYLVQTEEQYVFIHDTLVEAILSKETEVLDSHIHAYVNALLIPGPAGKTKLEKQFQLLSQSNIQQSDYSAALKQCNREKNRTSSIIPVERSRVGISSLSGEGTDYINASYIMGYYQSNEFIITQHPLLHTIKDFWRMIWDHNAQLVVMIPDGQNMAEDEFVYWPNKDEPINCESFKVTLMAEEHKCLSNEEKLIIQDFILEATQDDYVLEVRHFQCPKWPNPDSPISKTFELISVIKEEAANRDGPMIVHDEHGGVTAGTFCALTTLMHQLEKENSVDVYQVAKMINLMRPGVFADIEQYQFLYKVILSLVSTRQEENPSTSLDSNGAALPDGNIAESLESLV

B1: LRRC4B extracellular domain (receptor, human, UniProt Q9NT99 36-576, looked up)
chain: AGGGGVAVTSAAGGGSPPATSCPVACSCSNQASRVICTRRDLAEVPASIPVNTRYLNLQENGIQVIRTDTFKHLRHLEILQLSKNLVRKIEVGAFNGLPSLNTLELFDNRLTTVPTQAFEYLSKLRELWLRNNPIESIPSYAFNRVPSLRRLDLGELKRLEYISEAAFEGLVNLRYLNLGMCNLKDIPNLTALVRLEELELSGNRLDLIRPGSFQGLTSLRKLWLMHAQVATIERNAFDDLKSLEELNLSHNNLMSLPHDLFTPLHRLERVHLNHNPWHCNCDVLWLSWWLKETVPSNTTCCARCHAPAGLKGRYIGELDQSHFTCYAPVIVEPPTDLNVTEGMAAELKCRTGTSMTSVNWLTPNGTLMTHGSYRVRISVLHDGTLNFTNVTVQDTGQYTCMVTNSAGNTTASATLNVSAVDPVAAGGTGSGGGGPGGSGGVGGGSGGYTYFTTVTVETLETQPGEEALQPRGTEKEPPGPTTDGVWGGGRPGDAAGPASSSTTAPAPRSSRPTEKAFTVPITDVTENALKDLDDVMKTTK
notes: extracellular domain; ECD-Fc prey; also called NGL-3; netrin-G ligand-3
For the molecule B1, the binding result in assay [1] is recorded as “no binding”.

B2: CNTN1 extracellular domain (receptor, human, UniProt Q12860 21-993, looked up)
chain: EFTWYRRYGHGVSEEDKGFGPIFEEQPINTIYPEESLEGKVSLNCRARASPFPVYKWRMNNGDVDLTSDRYSMVGGNLVINNPDKQKDAGIYYCLASNNYGMVRSTEATLSFGYLDPFPPEERPEVRVKEGKGMVLLCDPPYHFPDDLSYRWLLNEFPVFITMDKRRFVSQTNGNLYIANVEASDKGNYSCFVSSPSITKSVFSKFIPLIPIPERTTKPYPADIVVQFKDVYALMGQNVTLECFALGNPVPDIRWRKVLEPMPSTAEISTSGAVLKIFNIQLEDEGIYECEAENIRGKDKHQARIYVQAFPEWVEHINDTEVDIGSDLYWPCVATGKPIPTIRWLKNGYAYHKGELRLYDVTFENAGMYQCIAENTYGAIYANAELKILALAPTFEMNPMKKKILAAKGGRVIIECKPKAAPKPKFSWSKGTEWLVNSSRILIWEDGSLEINNITRNDGGIYTCFAENNRGKANSTGTLVITDPTRIILAPINADITVGENATMQCAASFDPALDLTFVWSFNGYVIDFNKENIHYQRNFMLDSNGELLIRNAQLKHAGRYTCTAQTIVDNSSASADLVVRGPPGPPGGLRIEDIRATSVALTWSRGSDNHSPISKYTIQTKTILSDDWKDAKTDPPIIEGNMEAARAVDLIPWMEYEFRVVATNTLGRGEPSIPSNRIKTDGAAPNVAPSDVGGGGGRNRELTITWAPLSREYHYGNNFGYIVAFKPFDGEEWKKVTVTNPDTGRYVHKDETMSPSTAFQVKVKAFNNKGDGPYSLVAVINSAQDAPSEAPTEVGVKVLSSSEISVHWEHVLEKIVESYQIRYWAAHDKEEAANRVQVTSQEYSARLENLLPDTQYFIEVGACNSAGCGPPSDMIEAFTKKAPPSQPPRIISSVRSGSRYIITWDHVVALSNESTVTGYKVLYRPDGQHDGKLYSTHKHSIEVPIPRDGEYVVEVRAHSDGGDGVVSQVKIS
notes: extracellular domain; Streptavidin tetramer in cell assays; ECD-Fc in SPR; also called contactin 1
As for B2, the binding result in assay [2] was “binds”.
